Assay [1] has as its target c-Myc-containing recombinant protein. The assay can be described thus: SPR; KD against WT as reference. (Surface plasmon resonance follows binding to a sensor surface in real time, without labels.)
The target is the same in assay [2]. The assay can be described thus: SPR (Biacore T200), c-Myc-containing recombinant protein immobilised, soluble Fab injected at 5-80 nM, 1:1 Langmuir fit.

B1: aM parental murine Fab (Fab, V domains shown)
VH: QIQLVQSGPELKKPGETVRISCKASGYTFTTAGMQWVQKMPGKGLKWIGWINTHSGVPKYAEDFKGRFAFSLETSASTAYLQMTNLNNEDTATYFCARGYGKGGYFAMDYWGQGTSVTVSS
VL: DVVMTQIPFSLPVSLGDQASISCRSSQSLVHSNGNTYLHWYVQKPGQSPKLLIYKVSNRFSGVPDRFSGSGSGTYFTLKISRVEAEDLGVYFCSQSTRVPWTFGGGTKLEIK
As usually defined, the Kd is the constant that tells how readily two partners part at equilibrium. The term koff denotes the rate constant with which the complex falls apart. Usually kon stands for the second-order rate constant of association. For B1, the Fold change in assay [1] stood at 1 fold. Also, in assay [2], the Kd amounted to 110 nM, the dissociation rate constant (koff) came to 0.018 s⁻¹ and the association rate constant (kon) was 160000 M⁻¹ s⁻¹.
